Reference: the RNAGym collection of RNA variant scans (doi:10.7554/elife.80360)

B1: CPEB3 Ribozyme (parent)
chain: GGGGGCCACAGCAGAAGCGUUCACGUCGCGGCCCCUGUCAGAUUCUGGUGAAUCUGCGAAUUCUGCUGU

Variants of: B1
Assay: self-cleavage, relative activity (ratio to wild type); higher = more cleavage; co-transcriptional

First: C12U G28C
Second: C12U G28A
The self-cleavage of the first is higher: 0.175 for the first, 0.17 for the second.

Compared with C12U G28U, C12G A42C is higher in self-cleavage: 0.131 for the first, 0.493 for the second.

Going from C12G A42G to C12G A42U, the self-cleavage falls from 0.649 to 0.61.

Compared with C12G U44C, C12G U44G is higher in self-cleavage: 0.488 for the first, 0.868 for the second.

Going from C12G G31U to C12G G31C, the self-cleavage rises from 0.206 to 0.217.

First: C12G G31A
Second: A13C G17C
The self-cleavage of the first is higher: 0.334 for the first, 0.122 for the second.

Going from A13C G17A to C12A U36C, the self-cleavage rises from 0.0886 to 0.441.

Going from C12A G58C to C12A G58U, the self-cleavage rises from 0.653 to 0.843.

Going from C12G U43C to C12G U43A, the self-cleavage falls from 0.706 to 0.519.

Compared with C12G G30C, C12U C29U is lower in self-cleavage: 0.367 for the first, 0.232 for the second.

Compared with C12U C29G, C12U C32A is higher in self-cleavage: 0.317 for the first, 0.874 for the second.

Going from C12U C32G to A13C G28C, the self-cleavage falls from 0.529 to 0.149.

First: A13C G28U
Second: A13C G28A
The self-cleavage of the first is higher: 0.116 for the first, 0.108 for the second.

Compared with C12G A13C, C12G A13U is lower in self-cleavage: 0.26 for the first, 0.129 for the second.

Going from C12G C63G to C12G C63A, the self-cleavage falls from 0.339 to 0.218.

Compared with C12G U46G, C12G U46A is higher in self-cleavage: 0.862 for the first, 0.91 for the second.

Going from C12G U46C to C12G C57U, the self-cleavage falls from 0.832 to 0.336.

Going from C12G C57G to C12G C57A, the self-cleavage falls from 0.427 to 0.25.

Going from C12U U46A to C12U U46C, the self-cleavage falls from 1 to 0.939.

Compared with C12U U67G, C12U U67A is higher in self-cleavage: 0.938 for the first, 0.948 for the second.

Going from C12G C22U to C12U A40C, the self-cleavage rises from 0.149 to 0.358.

Going from C12U A40G to C12G U64A, the self-cleavage falls from 0.902 to 0.508.

Compared with C12U G47U, C12U G47C is higher in self-cleavage: 0.998 for the first, 1.03 for the second.

Compared with C12U G47A, C12U U69C is higher in self-cleavage: 1.03 for the first, 1.07 for the second.

Going from C12G U36A to C12G U36G, the self-cleavage rises from 0.228 to 0.294.

Compared with C12G C39G, C12G C39U is higher in self-cleavage: 0.455 for the first, 0.533 for the second.

Compared with C12A U69A, C12A U69C is higher in self-cleavage: 0.886 for the first, 0.981 for the second.

Compared with C12G A52C, C12G A52G is higher in self-cleavage: 0.792 for the first, 0.94 for the second.

Compared with C12G A52U, C12U G37A is lower in self-cleavage: 0.852 for the first, 0.302 for the second.

Going from C12U G37C to C12U G37U, the self-cleavage falls from 0.241 to 0.222.

Going from C12U C39U to C12U C39G, the self-cleavage rises from 0.854 to 0.928.

Going from C12G C54A to C12G C54U, the self-cleavage rises from 0.416 to 0.828.

Going from C12U A52C to C12U A52G, the self-cleavage rises from 0.903 to 1.01.

First: A13C C54A
Second: A13C C54G
The self-cleavage of the first is lower: 0.414 for the first, 0.45 for the second.

Compared with A13C C54U, C12A U43A is lower in self-cleavage: 0.773 for the first, 0.259 for the second.

Going from C12A U43G to C12A U43C, the self-cleavage rises from 0.207 to 0.453.

Going from C12U U36A to C12U U36G, the self-cleavage falls from 0.231 to 0.193.

First: A13C A16U
Second: A13C A16C
The self-cleavage of the first is higher: 0.185 for the first, 0.102 for the second.

Compared with A13C A16G, A13C C34G is lower in self-cleavage: 0.682 for the first, 0.498 for the second.

Compared with C12G U38G, C12G U38A is higher in self-cleavage: 0.126 for the first, 0.739 for the second.

Going from C12U U62A to C12U U62G, the self-cleavage falls from 0.819 to 0.542.

Going from C12G A51C to C12G A51G, the self-cleavage rises from 0.79 to 0.887.

Compared with A13C C29U, A13C C29A is higher in self-cleavage: 0.0773 for the first, 0.21 for the second.

First: C12G C33A
Second: C12G C33G
The self-cleavage of the first is higher: 0.68 for the first, 0.316 for the second.

Going from C12G A15C to C12G A15G, the self-cleavage rises from 0.301 to 0.613.

Compared with C12G A15U, C12A U21C is higher in self-cleavage: 0.171 for the first, 0.464 for the second.

Going from C12A U21A to C12G G25U, the self-cleavage falls from 0.642 to 0.101.

Going from C12G G25A to A13C G30C, the self-cleavage rises from 0.161 to 0.451.

Compared with A13C G30U, C12G G47C is higher in self-cleavage: 0.281 for the first, 0.888 for the second.

Going from C12G G47A to C12G G47U, the self-cleavage rises from 0.912 to 0.965.

Compared with C12U C18U, C12U C18A is lower in self-cleavage: 0.6 for the first, 0.0961 for the second.

Going from C12U C18G to C12U A42G, the self-cleavage rises from 0.218 to 0.863.

First: C12U A42C
Second: C12U A42U
The self-cleavage of the first is lower: 0.885 for the first, 0.91 for the second.

First: C12G C29U
Second: C12G C29A
The self-cleavage of the first is lower: 0.137 for the first, 0.213 for the second.

Compared with C12U G48U, A13C C57A is lower in self-cleavage: 1.01 for the first, 0.276 for the second.

First: C12U A60C
Second: C12U A60G
The self-cleavage of the first is lower: 0.299 for the first, 0.716 for the second.

First: C12G A40U
Second: C12G A40G
The self-cleavage of the first is lower: 0.404 for the first, 0.672 for the second.

First: C12G A59C
Second: C12G A59G
The self-cleavage of the first is lower: 0.339 for the first, 0.802 for the second.

First: C12G C34A
Second: C12G C34U
The self-cleavage of the first is lower: 0.699 for the first, 0.89 for the second.

Going from C12U C54G to C12U C54A, the self-cleavage falls from 0.84 to 0.812.

Compared with C12A U26C, C12G C66G is higher in self-cleavage: 0.5 for the first, 0.513 for the second.

First: C12G C66U
Second: C12G C66A
The self-cleavage of the first is higher: 0.69 for the first, 0.487 for the second.

Going from A13C C18G to A13C C18U, the self-cleavage rises from 0.0963 to 0.262.

Compared with A13C C18A, A13C G25C is lower in self-cleavage: 0.181 for the first, 0.0875 for the second.

First: C12U G31C
Second: C12U G31A
The self-cleavage of the first is lower: 0.191 for the first, 0.905 for the second.

Going from C12U G31U to C12U A23G, the self-cleavage rises from 0.723 to 0.946.

Compared with C12U A23U, C12U U43G is lower in self-cleavage: 0.963 for the first, 0.706 for the second.

First: C12U U43C
Second: C12U A16C
The self-cleavage of the first is higher: 0.928 for the first, 0.134 for the second.

Compared with C12U A16U, C12U A16G is higher in self-cleavage: 0.655 for the first, 0.814 for the second.

First: A13C A40C
Second: A13C A40U
The self-cleavage of the first is higher: 0.247 for the first, 0.23 for the second.

Going from C12U C66A to C12A U62A, the self-cleavage falls from 0.571 to 0.248.

Compared with C12A U62G, C12G G50C is higher in self-cleavage: 0.312 for the first, 0.75 for the second.

Going from C12G G50A to C12G G50U, the self-cleavage falls from 0.917 to 0.84.

Compared with C12G G41A, C12U C22U is lower in self-cleavage: 0.353 for the first, 0.16 for the second.

First: C12U C22G
Second: C12G U26G
The self-cleavage of the first is lower: 0.248 for the first, 0.729 for the second.

Going from C12G U26C to C12G U26A, the self-cleavage falls from 0.74 to 0.695.

First: C12U G17C
Second: C12U G17U
The self-cleavage of the first is lower: 0.138 for the first, 0.321 for the second.

Going from C12U G17A to C12G G68U, the self-cleavage rises from 0.281 to 0.917.

First: C12A U64G
Second: C12U G50A
The self-cleavage of the first is lower: 0.674 for the first, 1 for the second.

Going from C12U G50C to C12G U62G, the self-cleavage falls from 0.974 to 0.338.

Compared with C12A U49A, C12A U49G is lower in self-cleavage: 0.893 for the first, 0.846 for the second.

Compared with A13C A42G, A13C A42U is higher in self-cleavage: 0.506 for the first, 0.561 for the second.

Compared with C12U U64G, C12U U64C is higher in self-cleavage: 0.757 for the first, 0.785 for the second.

With C12U U64A the self-cleavage was 0.697.
